We go through one substance from patent US20230022700A1.

The target of the assay is polymerized rabbit skeletal muscle actin (F-actin) (rabbit) (UniProt P68135).

In the case of “Wolbachia wMel protein WD0830 (Wolbachia actin localizing effector 1, WalE1), purified from E. coli”, the percent of total protein in the pellet when actin was present amounted to 24%.
